Test results as given in US20130108636A1.

Tests used:
[1] = target: gp140Con-s; test: SPR (Biacore X100), gp140 amine-coupled on a CM5 chip, single-cycle, monovalent model
[2] = target: gp140Con-s; test: SPR; target not given, taken from Example 5

Row | Substance | Kd [1] | koff [2] | fold decrease of association rate constant compared to mD1 [2] | kon [2]
1 | D1D2 (from UniProt P01730 26-203) (receptor) | 7.8 nM | 0.0013 s⁻¹ | – | –
2 | mD1-CH2 (from UniProt P01730 26-124) | – | 0.0009 s⁻¹ | 80 fold | 61000 M⁻¹ s⁻¹
